Like-named read-outs stand apart in the source and are kept apart here. Blank lines part the entries; values can stand above or below the compound they belong to.
Legend:
DIO mice = experiment: Body composition in high fat diet mice, alone and in combination with incretin mimetics; type: in vivo; conditions: for Fat mass (% change from baseline) / Lean mass (% change from baseline): as E44, NMR
Description: Experiments were performed in vivo to investigate the potential for additive or synergistic effects between exemplary ActRIIB-ECD polypeptide constructs and incretin mimetics.

[1] = Co-formulation study of ectodomain-based traps with incretin mimetics (monomer content by SEC / RP-HPLC, integrity, stability); type: physicochemical; conditions: retatrutide formulations, 20 mM NaPO4, glycine, sucrose, histidine pH 7.5
Description: In each case, the following parameters were assessed: a) monomer content (size exclusion chromatography), b) activin A and GDF-8 neutralization (cell-based assays [CBAs]), c) activin A binding (ELISA), d) GLP-1 receptor binding (ELISA).
In each case, the following parameters were assessed: a) monomer content (size exclusion chromatography), b) activin A and GDF-8 neutralization (cell-based assays [CBAs]), and c) GLP-1 receptor activation (CBA).
Given that protein aggregation can be indicative of reduced conformational stability and decreased activity, Size-Exclusion Chromatography-High Performance Liquid Chromatography (SEC-HPLC) was used to determine the purity of each ActRIIB-ECD construct. This method measured the percentage of intact monomeric species as well as the presence of aggregates and/or degradation products.
In some instances, the method used to assess the purity of an agent was based on a reversed-phase high-performance liquid chromatography (RP-HPLC) setup with a C18 column. The mobile phases consisted of acetonitrile with 0.1% formic acid (organic phase) and water with 0.1% formic acid (aqueous phase). […] Formic acid anions form an ion pair with positively charged peptides, increasing their hydrophobicity and therefore their retention time. Detection was performed using a UV detector, at 280 nm.

[2] = molecular target: GLP-1 receptor (GLP-1R) on CHO-K1 cells stably overexpressing GLP-1R (UniProt P43220); experiment: cell-based or functional assay
GLP-1 receptor (GLP-1R) on CHO-K1 cells stably overexpressing GLP-1R, sequence (P43220 24-463 limits assumed): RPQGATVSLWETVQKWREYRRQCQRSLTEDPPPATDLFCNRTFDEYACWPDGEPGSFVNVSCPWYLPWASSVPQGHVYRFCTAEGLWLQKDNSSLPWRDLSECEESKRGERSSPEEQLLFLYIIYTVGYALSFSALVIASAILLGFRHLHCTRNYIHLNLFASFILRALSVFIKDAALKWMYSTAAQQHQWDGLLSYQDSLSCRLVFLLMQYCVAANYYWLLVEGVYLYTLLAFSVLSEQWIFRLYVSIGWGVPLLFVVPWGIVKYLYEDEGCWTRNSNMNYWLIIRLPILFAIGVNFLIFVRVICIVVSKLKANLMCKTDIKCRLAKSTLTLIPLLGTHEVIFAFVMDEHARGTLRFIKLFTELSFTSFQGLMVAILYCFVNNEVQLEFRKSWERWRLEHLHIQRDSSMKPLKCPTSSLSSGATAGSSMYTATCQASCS

[3] = molecular target: T1, GIP receptor (GIPR) on CHO-K1 cells stably overexpressing GIPR (UniProt P48546); experiment: cell-based or functional assay
T1 sequence (looked up): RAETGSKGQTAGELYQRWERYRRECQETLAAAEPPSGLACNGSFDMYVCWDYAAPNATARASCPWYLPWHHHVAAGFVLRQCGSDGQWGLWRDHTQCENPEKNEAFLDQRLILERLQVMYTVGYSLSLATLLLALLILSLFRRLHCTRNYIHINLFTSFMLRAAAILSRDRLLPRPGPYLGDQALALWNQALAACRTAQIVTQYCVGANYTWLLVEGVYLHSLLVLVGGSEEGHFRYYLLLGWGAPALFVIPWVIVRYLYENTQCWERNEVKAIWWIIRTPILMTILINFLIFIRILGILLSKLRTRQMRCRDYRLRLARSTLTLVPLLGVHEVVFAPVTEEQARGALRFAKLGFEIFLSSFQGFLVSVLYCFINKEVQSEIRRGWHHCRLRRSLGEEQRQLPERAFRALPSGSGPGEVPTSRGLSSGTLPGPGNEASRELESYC

[4] = molecular target: GLP-1 receptor (GLP-1R) on CHO-K1 cells stably overexpressing GLP-1R (UniProt P43220); experiment: cell-based or functional assay; remark: listed apart in the source
[5] = molecular target: T1, GIP receptor (GIPR) on CHO-K1 cells stably overexpressing GIPR; experiment: cell-based or functional assay; remark: listed apart in the source

Compound: tirzepatide [reference compound]
Body weight (% change from baseline) (DIO mice; DIO mice, 21 days s.c., P1307 20 mg/kg weekly, P1229 40 mg/kg twice weekly, semaglutide 40 μg/kg daily, tirzepatide 45 μg/kg daily, alone or combined): −26.8%
visceral, epididymal, pericardial, peri-renal, and retroperitoneal white adipose tissue weights (DIO mice; DIO mice, D21): significantly decreased all white adipose tissue weights
gastrocnemius and tibialis anterior weights (DIO mice; DIO mice, D21, P1229 with or without caloric restriction): no significant effect on muscle weights
Fat mass (% change from baseline) (DIO mice): −46.2%
Lean mass (% change from baseline) (DIO mice): −14.5%
Fat mass (% change from baseline) (DIO mice; listed as tirzepatide): −46.2%
Lean mass (% change from baseline) (DIO mice; listed as tirzepatide): −14.5%

Compound: CC[C@H](C)[C@H](NC(=O)[C@H](Cc1ccccc1)NC(=O)[C@H](C)NC(=O)C(C)(C)NC(=O)[C@H](CCC(N)=O)NC(=O)[C@H](C)NC(=O)[C@H](CCCCNC(=O)COCCOCCNC(=O)CC[C@H](NC(=O)CCCCCCCCCCCCCCCCCCC(=O)O)C(=O)O)NC(=O)[C@H](CCCCN)NC(=O)[C@H](CC(=O)O)NC(=O)[C@H](CC(C)C)NC(=O)[C@](C)(CC(C)C)NC(=O)[C@@H](NC(=O)[C@H](CO)NC(=O)[C@H](Cc1ccc(O)cc1)NC(=O)[C@H](CC(=O)O)NC(=O)[C@H](CO)NC(=O)[C@@H](NC(=O)[C@H](Cc1ccccc1)NC(=O)[C@@H](NC(=O)CNC(=O)[C@H](CCC(N)=O)NC(=O)C(C)(C)NC(=O)[C@@H](N)Cc1ccc(O)cc1)[C@@H](C)O)[C@@H](C)O)[C@@H](C)CC)C(=O)N[C@@H](CCC(=O)O)C(=O)N[C@@H](Cc1ccc(O)cc1)C(=O)N[C@@H](CC(C)C)C(=O)N[C@@H](CC(C)C)C(=O)N[C@@H](CCC(=O)O)C(=O)NCC(=O)NCC(=O)N1CCC[C@H]1C(=O)N[C@@H](CO)C(=O)N[C@@H](CO)C(=O)NCC(=O)N[C@@H](C)C(=O)N1CCC[C@H]1C(=O)N1CCC[C@H]1C(=O)N1CCC[C@H]1C(=O)N[C@@H](CO)C(N)=O [Retatrutide alone]
Monomer Content (%) Retatrutide ([1]; D 0): 100%
Monomer Content (%) Retatrutide ([1]; D 7, 2-8° C.): 100%
Monomer Content (%) Retatrutide ([1]; D 7, RT): 100%
Monomer Content (%) Retatrutide ([1]; D 14, 2-8° C.): 100%
Monomer Content (%) Retatrutide ([1]; D 14, RT): 100%
Monomer Content (%) Retatrutide ([1]; D 28, 2-8° C.): 100%
Monomer Content (%) Retatrutide ([1]; D 28, RT): 100%
Monomer Content (%) Retatrutide ([1]; D 56, 2-8° C.): 100%
Monomer Content (%) Retatrutide ([1]; D 56, RT): 100%

CBA potency GLP-1R; P1372 + retatrutide; D 0 [2]: 3 pM
CBA potency GLP-1R; P1372 + retatrutide; D 7 2-8°C [2]: 2 pM
CBA potency GLP-1R; P1372 + retatrutide; D 7 RT [2]: 1.8 pM
CBA potency GLP-1R; P1372 + retatrutide; D 14 2-8°C [2]: 4.1 pM
CBA potency GLP-1R; P1372 + retatrutide; D 14 RT [2]: 3.3 pM
CBA potency GLP-1R; P1372 + retatrutide; D 28 2-8°C [2]: 2.9 pM
CBA potency GLP-1R; P1372 + retatrutide; D 28 RT [2]: 2.1 pM
CBA potency GLP-1R; P1372 + retatrutide; D 56 2-8°C [2]: 2.3 pM
CBA potency GLP-1R; P1372 + retatrutide; D 56 RT [2]: 2.3 pM
CBA potency GLP-1R; Retatrutide alone; D 0 [2]: 3 pM
CBA potency GLP-1R; Retatrutide alone; D 7 2-8°C [2]: 1.8 pM
CBA potency GLP-1R; Retatrutide alone; D 7 RT [2]: 2.5 pM
CBA potency GLP-1R; Retatrutide alone; D 14 2-8°C [2]: 3.1 pM
CBA potency GLP-1R; Retatrutide alone; D 14 RT [2]: 5.6 pM
CBA potency GLP-1R; Retatrutide alone; D 28 2-8°C [2]: 2.7 pM
CBA potency GLP-1R; Retatrutide alone; D 28 RT [2]: 2.7 pM
CBA potency GLP-1R; Retatrutide alone; D 56 2-8°C [2]: 2.1 pM
CBA potency GLP-1R; Retatrutide alone; D 56 RT [2]: 1.9 pM
CBA potency GIPR; P1372 + retatrutide; D 0 [3]: 0.94 pM
CBA potency GIPR; P1372 + retatrutide; D 7 2-8°C [3]: 0.98 pM
CBA potency GIPR; P1372 + retatrutide; D 7 RT [3]: 0.98 pM
CBA potency GIPR; P1372 + retatrutide; D 14 2-8°C [3]: 1.1 pM
CBA potency GIPR; P1372 + retatrutide; D 14 RT [3]: 0.76 pM
CBA potency GIPR; P1372 + retatrutide; D 28 2-8°C [3]: 1 pM
CBA potency GIPR; P1372 + retatrutide; D 28 RT [3]: 0.84 pM
CBA potency GIPR; P1372 + retatrutide; D 56 2-8°C [3]: 0.85 pM
CBA potency GIPR; P1372 + retatrutide; D 56 RT [3]: 0.75 pM
CBA potency GIPR; Retatrutide alone; D 0 [3]: 0.74 pM
CBA potency GIPR; Retatrutide alone; D 7 2-8°C [3]: 1 pM
CBA potency GIPR; Retatrutide alone; D 7 RT [3]: 0.87 pM
CBA potency GIPR; Retatrutide alone; D 14 2-8°C [3]: 1 pM
CBA potency GIPR; Retatrutide alone; D 14 RT [3]: 1.2 pM
CBA potency GIPR; Retatrutide alone; D 28 2-8°C [3]: 1.1 pM
CBA potency GIPR; Retatrutide alone; D 28 RT [3]: 1.1 pM
CBA potency GIPR; Retatrutide alone; D 56 2-8°C [3]: 0.84 pM
CBA potency GIPR; Retatrutide alone; D 56 RT [3]: 0.82 pM
Compound: retatrutide (peptide)

Compound: tirzepatide (peptide)
CBA potency GLP-1R; P1372 + tirzepatide; D 0 [2]: 9.3 pM
CBA potency GLP-1R; P1372 + tirzepatide; D 7 2-8°C [2]: 13 pM
CBA potency GLP-1R; P1372 + tirzepatide; D 7 RT [2]: 12 pM
CBA potency GLP-1R; P1372 + tirzepatide; D 14 RT [2]: 13 pM
CBA potency GLP-1R; P1372 + tirzepatide; D 28 2-8°C [2]: 14 pM
CBA potency GLP-1R; P1372 + tirzepatide; D 28 RT [2]: 13 pM
CBA potency GLP-1R; P1372 + tirzepatide; D 56 2-8°C [2]: 7.4 pM
CBA potency GLP-1R; P1372 + tirzepatide; D 56 RT [2]: 7.7 pM
CBA potency GLP-1R; Tirzepatide alone; D 0 [2]: 11 pM
CBA potency GLP-1R; Tirzepatide alone; D 7 2-8°C [2]: 11 pM
CBA potency GLP-1R; Tirzepatide alone; D 7 RT [2]: 13 pM
CBA potency GLP-1R; Tirzepatide alone; D 14 2-8°C [2]: 17 pM
CBA potency GLP-1R; Tirzepatide alone; D 14 RT [2]: 23 pM
CBA potency GLP-1R; Tirzepatide alone; D 28 2-8°C [2]: 14 pM
CBA potency GLP-1R; Tirzepatide alone; D 28 RT [2]: 12 pM
CBA potency GLP-1R; Tirzepatide alone; D 56 2-8°C [2]: 7 pM
CBA potency GLP-1R; Tirzepatide alone; D 56 RT [2]: 6.7 pM
CBA potency GIPR; P1372 + tirzepatide; D 0 [3]: 1.5 pM
CBA potency GIPR; P1372 + tirzepatide; D 7 2-8°C [3]: 1.7 pM
CBA potency GIPR; P1372 + tirzepatide; D 7 RT [3]: 2.1 pM
CBA potency GIPR; P1372 + tirzepatide; D 14 2-8°C [3]: 1.5 pM
CBA potency GIPR; P1372 + tirzepatide; D 14 RT [3]: 1.8 pM
CBA potency GIPR; P1372 + tirzepatide; D 28 2-8°C [3]: 2 pM
CBA potency GIPR; P1372 + tirzepatide; D 28 RT [3]: 2.8 pM
CBA potency GIPR; P1372 + tirzepatide; D 56 2-8°C [3]: 1.6 pM
CBA potency GIPR; P1372 + tirzepatide; D 56 RT [3]: 1.7 pM
CBA potency GIPR; Tirzepatide alone; D 0 [3]: 1.6 pM
CBA potency GIPR; Tirzepatide alone; D 7 2-8°C [3]: 2.8 pM
CBA potency GIPR; Tirzepatide alone; D 7 RT [3]: 2.8 pM
CBA potency GIPR; Tirzepatide alone; D 14 2-8°C [3]: 2.2 pM
CBA potency GIPR; Tirzepatide alone; D 14 RT [3]: 1.7 pM
CBA potency GIPR; Tirzepatide alone; D 28 2-8°C [3]: 2.2 pM
CBA potency GIPR; Tirzepatide alone; D 28 RT [3]: 2.1 pM
CBA potency GIPR; Tirzepatide alone; D 56 2-8°C [3]: 1.5 pM
CBA potency GIPR; Tirzepatide alone; D 56 RT [3]: 1.5 pM
CBA potency GLP-1R; P1372 + tirzepatide; D 0 [4]: 5.3 pM
CBA potency GLP-1R; P1372 + tirzepatide; D 7 2-8°C [4]: 3.2 pM
CBA potency GLP-1R; P1372 + tirzepatide; D 7 RT [4]: 3.3 pM
CBA potency GLP-1R; P1372 + tirzepatide; D 14 2-8°C [4]: 2.9 pM
CBA potency GLP-1R; P1372 + tirzepatide; D 14 RT [4]: 2.8 pM
CBA potency GLP-1R; P1372 + tirzepatide; D 28 2-8°C [4]: 5.5 pM
CBA potency GLP-1R; P1372 + tirzepatide; D 28 RT [4]: 5.4 pM
CBA potency GLP-1R; P1372 + tirzepatide; D 56 2-8°C [4]: 9.3 pM
CBA potency GLP-1R; P1372 + tirzepatide; D 56 RT [4]: 10 pM
CBA potency GLP-1R; Tirzepatide alone; D 0 [4]: 4.3 pM
CBA potency GLP-1R; Tirzepatide alone; D 7 2-8°C [4]: 4.6 pM
CBA potency GLP-1R; Tirzepatide alone; D 7 RT [4]: 3.7 pM
CBA potency GLP-1R; Tirzepatide alone; D 14 2-8°C [4]: 2.4 pM
CBA potency GLP-1R; Tirzepatide alone; D 14 RT [4]: 3.3 pM
CBA potency GLP-1R; Tirzepatide alone; D 28 2-8°C [4]: 5.6 pM
CBA potency GLP-1R; Tirzepatide alone; D 28 RT [4]: 5 pM
CBA potency GLP-1R; Tirzepatide alone; D 56 2-8°C [4]: 8.3 pM
CBA potency GLP-1R; Tirzepatide alone; D 56 RT [4]: 8.4 pM
CBA potency GIPR; P1372 + tirzepatide; D 0 [5]: 1.3 pM
CBA potency GIPR; P1372 + tirzepatide; D 7 2-8°C [5]: 1 pM
CBA potency GIPR; P1372 + tirzepatide; D 7 RT [5]: 0.99 pM
CBA potency GIPR; P1372 + tirzepatide; D 14 2-8°C [5]: 0.98 pM
CBA potency GIPR; P1372 + tirzepatide; D 14 RT [5]: 1 pM
CBA potency GIPR; P1372 + tirzepatide; D 28 2-8°C [5]: 1.3 pM
CBA potency GIPR; P1372 + tirzepatide; D 28 RT [5]: 1.5 pM
CBA potency GIPR; P1372 + tirzepatide; D 56 2-8°C [5]: 1.9 pM
CBA potency GIPR; Tirzepatide alone; D 0 [5]: 1.5 pM
CBA potency GIPR; Tirzepatide alone; D 7 2-8°C [5]: 1.1 pM
CBA potency GIPR; Tirzepatide alone; D 7 RT [5]: 1.2 pM
CBA potency GIPR; Tirzepatide alone; D 14 2-8°C [5]: 0.84 pM
CBA potency GIPR; Tirzepatide alone; D 14 RT [5]: 0.82 pM
CBA potency GIPR; Tirzepatide alone; D 28 2-8°C [5]: 1.6 pM
CBA potency GIPR; Tirzepatide alone; D 28 RT [5]: 1.4 pM
CBA potency GIPR; Tirzepatide alone; D 56 2-8°C [5]: 1.9 pM
CBA potency GIPR; Tirzepatide alone; D 56 RT [5]: 2 pM
